Data taken from article PMC10281000 (Chembiochem : a European journal of chemical biology, 2021).

B1: PA0810, L-2-haloacid dehalogenase from Pseudomonas aeruginosa PAO1 (enzyme)
chain: MRAILFDVFGTLVDWRSSLIEQFQALERELGGTLPCVELTDRWRQQYKPAMDRVRNGQAPWQHLDQLHRQSLEALAGEFGLALDEALLQRITGFWHRLRPWPDTLAGMHALKADYWLAALSNGNTALMLDVARHAGLPWDMLLCADLFGHYKPDPQVYLGACRLLDLPPQEVMLCAAHNYDLKAARALGLKTAFIARPLEYGPGQSQDLAAEQDWDLIASDLLDLHRQLAASA

Legend:
O=C(O)CCl = assay: purified protein; conditions: pH 8.5; 30.0 °C
ST2570 = ST2570 (Sulfurisphaera tokodaii, UniProt Q96XE7); conditions: 100 mM Tris-SO4, pH 8.5, 30 °C; defluorination
Bpro0530 = conditions: 100 mM Tris-SO4, pH 8.5, 30 °C; defluorination
Rha0230 = Rha0230 (Rhodococcus jostii, UniProt Q0SK70); conditions: 100 mM Tris-SO4, pH 8.5, 30 °C; defluorination
crystal structure = molecular target: the molecule itself; assay: crystal structure

| Molecule | Km (O=C(O)CCl) | kcat/Km (O=C(O)CCl) | further results |
| --- | --- | --- | --- |
| Rha0230 (Rhodococcus jostii RHA1; Y61F) | 14 ± 2 mM | 73 ± 13 M⁻¹ s⁻¹ |  |
| ST2570 (Sulfurisphaera tokodaii str. 7) | 0.00353 ± 3e-05 mM | 73000 ± 1100 M⁻¹ s⁻¹ |  |
| O=C(O)CF [fluoroacetate] |  |  | Km (ST2570): 2.4 ± 0.7 mM; Km (Bpro0530): 20.3 ± 0.3 mM; Km (Rha0230): 18 ± 3 mM |
| Rha0230 (Rhodococcus jostii RHA1) | 18 ± 2 mM | 37 ± 6 M⁻¹ s⁻¹ |  |
| B1 |  |  | binding result (crystal structure): binds |
